In patent US20250019451A1 (HIFIBIO, published 2025):
Where a chain is given by its changes, count along the chain named.

Legend:
human CCR8 [1] = target: T1, human CCR8 (human, UniProt P51685 1-355); test: cell-based or functional assay
human CCR4 = target: T2, human CCR4 (human, UniProt P51679 1-360); test: flow cytometry on transiently transfected ExpiHEK293 cells
T2 construct: Expressed on cells for flow cytometry; also called hCCR4
T2 sequence: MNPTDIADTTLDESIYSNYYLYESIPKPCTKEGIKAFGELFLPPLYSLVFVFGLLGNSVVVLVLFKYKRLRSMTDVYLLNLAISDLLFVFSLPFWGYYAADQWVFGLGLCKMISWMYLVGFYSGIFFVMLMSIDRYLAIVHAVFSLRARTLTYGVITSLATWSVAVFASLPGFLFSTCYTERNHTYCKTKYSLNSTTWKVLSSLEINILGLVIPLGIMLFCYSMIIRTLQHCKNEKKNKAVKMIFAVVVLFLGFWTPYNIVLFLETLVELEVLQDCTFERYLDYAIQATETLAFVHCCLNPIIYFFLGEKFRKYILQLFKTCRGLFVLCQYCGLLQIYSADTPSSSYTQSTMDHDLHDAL

human CCR8 [2] = target: T1, human CCR8; test: flow cytometry on transiently transfected ExpiHEK293 cells, 50 nM antibody
Method: (§1) Briefly, purified antibodies (saturating concentration of 50 nM, FIG. 3A or concentration range from 100 nM, 3-fold dilution, FIGS. 3B-3C) were incubated with 1×10⁵ ExpiHEK293 cells transiently transfected with either human (SEQ ID NO:11; Uniprot/Swiss-Prot: P51685), mouse CCR8 (SEQ ID NO: 64; Uniprot/Swiss-Prot: P56484), or cynoCCR8 (SEQ ID NO: 65; Uniprot/Swiss-Prot: G7NYJ2) fused to GFP protein via cleavable linker, for 30 minutes at 4° C. After washing, secondary anti-human-AF647 antibody (Jackson ImmunoResearch; West Grove, PA) was incubated at 12 nM for 30 minutes in PBS. After washing, cell pellets were resuspended in 50 μL PBS and samples were analyzed by flow cytometry on iQue cytometer (Sartorious, Goettingen, Germany) using Forecyt software (Intellicyt, Ann Arbor, MI). Mean of fluorescence intensity for the specific signal among GFP+ cells are represented in FIGS. 3A-3C. Titration curve of cross-reactive antibodies against mouse CCR8 and cyno CCR8 are presented in FIGS. 3B and 3C, respectively.

cynoCCR8 [3] = target: T3, cynoCCR8 (cynomolgus, UniProt O97665 1-356 (rhesus entry)); test: flow cytometry titration on ExpiHEK293 cells transiently expressing cynoCCR8
T3 construct: Transiently expressed on ExpiHEK293 cells, fused to GFP via cleavable linker; also called cynomolgus CCR8
Method: as §1

mouse CCR8 [4] = target: T4, mouse CCR8 (mouse, UniProt P56484 1-353); test: flow cytometry titration on ExpiHEK293 cells transiently expressing mouse CCR8
T4 construct: Transiently expressed on ExpiHEK293 cells, fused to GFP via cleavable linker
T4 sequence: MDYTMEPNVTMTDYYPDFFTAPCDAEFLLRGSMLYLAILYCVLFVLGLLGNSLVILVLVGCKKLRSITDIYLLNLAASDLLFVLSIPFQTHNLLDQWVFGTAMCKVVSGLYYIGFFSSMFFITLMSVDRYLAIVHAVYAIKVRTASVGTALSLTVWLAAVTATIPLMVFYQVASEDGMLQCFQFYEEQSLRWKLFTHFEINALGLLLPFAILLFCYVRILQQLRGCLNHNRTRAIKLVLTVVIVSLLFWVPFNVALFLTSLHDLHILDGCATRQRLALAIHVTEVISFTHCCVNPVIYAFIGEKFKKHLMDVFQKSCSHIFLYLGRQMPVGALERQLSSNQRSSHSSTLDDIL
Method: as §1

cynoCCR8 [5] = target: T3, cynoCCR8; test: flow cytometry on ExpiHEK293 cells transiently expressing cynoCCR8
Method: as §1

mouse CCR8 [6] = target: T4, mouse CCR8; test: flow cytometry on ExpiHEK293 cells transiently expressing mouse CCR8
Method: as §1

human CCR8 [7] = target: T1, human CCR8; test: flow cytometry on ExpiHEK293 cells transiently expressing human CCR8, 50 nM antibody
Method: as §1

T3 sequence (O97665 other isoform, or with tags, fused parts or gaps): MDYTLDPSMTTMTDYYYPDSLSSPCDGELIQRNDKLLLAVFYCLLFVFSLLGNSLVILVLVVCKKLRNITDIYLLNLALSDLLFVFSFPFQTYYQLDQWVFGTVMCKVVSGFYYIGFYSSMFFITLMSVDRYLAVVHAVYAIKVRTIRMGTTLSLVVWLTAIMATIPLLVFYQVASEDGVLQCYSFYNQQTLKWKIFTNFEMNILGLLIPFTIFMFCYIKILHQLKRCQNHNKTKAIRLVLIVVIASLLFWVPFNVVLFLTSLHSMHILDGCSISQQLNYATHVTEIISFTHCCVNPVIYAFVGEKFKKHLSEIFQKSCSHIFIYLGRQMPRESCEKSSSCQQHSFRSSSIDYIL

B1: HFB11-10 parental antibody (non-humanized) in ADCC enhanced format (antibody, V domains shown)
VH: EVQLVETGGGLVQPKGSLKLSCAASGFRFNTNAMNWVRQAPGKDLEWVARIRSKSNNYATYYADSVKDRFTISRDDSQSMLYLQMNNVKTEDTAMYYCVRGSDNNYYYAMDYWGQGTSVTVSS
VL: DIVMTQAAPSVPVTPGESVSISCRSSKSLLHSNGNTYLYWFLQRPGQSPQLLIYRMSNLASGVPDRFSGSGSGTAFTLRISRVEAEDVGVYYCMQHLEYPFTFGSGTKLEIK
ADCC NK killing of M300.19 cells expressing low copies of CCR8, EC50 (human CCR8 [1]): 3 pM

B2: HFB11-21 (antibody, human IgG1, V domains shown)
VH: QVQLQQPGAELVKPGASVKLSCKASGYTFISYWMHWVKQRPGRGLEWIGRIDPNSGKTKYNEKFKTKATLTVDKSSSTAYMHLNSLTSDDSAVYYCAREGWGDYWGQGTTLTVSS
VL: DIVLTQSPASLAVSLGQRATISCRASESVDNYGISFMHWYQQKPGQPPRLLIYRASNLASGIPARFSGSGSSTDFTLTINPVETDDIATYYCQQSNKDPRTFGGGTKLEIK
notes: also called HFB-21
binding result (human CCR4): no binding (tested: 50 nM) | binding result (human CCR8 [2]): binds | EC50 (cynoCCR8 [3]): 15.8 nM | EC50 (mouse CCR8 [4]): 53 nM

B3: HFB11-5 (antibody, human IgG1, V domains shown)
VH: EVQLVESGGGLVQPRGSLKLSCTASGFSFNAYAMNWVRQAPGKGLEWVARIRTKSNNYATYYADSVKDRFTISRDDSESMLYLQMKNLKTEDTAMYYCVRGGYGNGGYYFDYWGQGTTLTVSS
VL: B1 VL with P12T, V19A, S32R, T36S, M56I
binding result (human CCR4): no binding (tested: 50 nM) | binding result (cynoCCR8 [5]): no binding (tested: 50 nM) | binding result (mouse CCR8 [6]): no binding (tested: 50 nM) | binding result (human CCR8 [7]): binds

B4: HFB11-10 (antibody, V domains shown)
VH: B1 VH
VL: B1 VL
notes: Mouse variable domains; also called H11-10
binding result (human CCR4): no binding (tested: 50 nM) | binding result (cynoCCR8 [5]): no binding (tested: 50 nM) | binding result (mouse CCR8 [6]): no binding (tested: 50 nM)

B5: HFB11-8 (antibody, human IgG1, V domains shown)
VH: B1 VH with D44G, Y61H, A63V, I72V, V88L, T90A
VL: B1 VL with A75S, A85V
binding result (human CCR4): no binding (tested: 50 nM) | binding result (cynoCCR8 [5]): no binding (tested: 50 nM) | binding result (mouse CCR8 [6]): no binding (tested: 50 nM) | binding result (human CCR8 [7]): binds

B6: HFB11-2 (antibody, human IgG1, V domains shown)
VH: EVQLVESGGGLVQPKGSLKLSCAASGFSFNTYAMNWVRQAPGKGLEWVARIRSKSNNYATYYADSVKDRFTISRDDSERMLYLQMNNLKTEDTAMYYCVRGGSYYSNHYFDYWGQGTTLTVSS
VL: B1 VL with R55Q, S105A, I111L
binding result (human CCR4): no binding (tested: 50 nM) | binding result (human CCR8 [2]): binds | EC50 (mouse CCR8 [4]): < 1 nM

B7: HFB11-19 (antibody, human IgG1, V domains shown)
VH: QVQLQQSGAELVKPGASVKLSCKASGYTFTDYIIHWVKQRSGQGLEWIGWFSPRNNYVKYNERFTDKATLTADKSSNTVYMELSSLTSEDSAVYFCSRHGRNSIGFAYWGQGTLVTVSA
VL: B1 VL with H31N, F101Y, S105G
binding result (human CCR4): no binding (tested: 50 nM) | binding result (human CCR8 [2]): binds | EC50 (cynoCCR8 [3]): 1.8 nM

B8: HFB11-3 (antibody, human IgG1, V domains shown)
VH: EVQLVESGGGLVQPQGSLKLSCAASGFSFNTYAMNWVRQAPGKGLQWVARIRSKSNNYATYYADSVKDRFTISRDDSESMLYLQMNNLKTEDAAMYYCVRGKDANYFYAMDYWGQGTSVTVSS
VL: B1 VL with S105A, I111L
binding result (human CCR4): no binding (tested: 50 nM) | binding result (cynoCCR8 [5]): no binding (tested: 50 nM) | binding result (mouse CCR8 [6]): no binding (tested: 50 nM)
